Results taken from publication PMC4173154 (Genes & Development, 2014).

Target: native Drosophila core histones (Drosophila, UniProt P84051 1-124; P02283 1-123; P02299 1-136; P84040 1-103)
Assay: co-sedimentation

binding result: binds
B1: recombinant Drosophila NLP, C-terminal 6-His tag (natural protein)
chain: MAEESFYGVTLTAESDSVTWDVDEDYARGQKLVIKQILLGAEAKENEFNVVEVNTPKDSVQIPIAVLKAGETRAVNPDVEFYESKVTFKLIKGSGPVYIHGHNIKDDVEVVDMEEDDEEDDVAEDEEDEHPKKRAKIENAADGKNAKNNKKK
